Data on 57 molecules can be found in US20050080013A1 (Pfizer, published 2005).

Non-standard residues stand in square brackets, D forms with d. Primed or numbered codes have the meaning given here. No end group written: not given here. Orn = NCCC[C@H](N)C(=O)O; Nal″ = naphthylalanine; Aib = CC(C)(N)C(=O)O

The labels stand for the following.
T1: lecithin:cholesterol acyltransferase (LCAT), purified from human plasma (human, UniProt P04180 25-440)
T1 sequence (looked up): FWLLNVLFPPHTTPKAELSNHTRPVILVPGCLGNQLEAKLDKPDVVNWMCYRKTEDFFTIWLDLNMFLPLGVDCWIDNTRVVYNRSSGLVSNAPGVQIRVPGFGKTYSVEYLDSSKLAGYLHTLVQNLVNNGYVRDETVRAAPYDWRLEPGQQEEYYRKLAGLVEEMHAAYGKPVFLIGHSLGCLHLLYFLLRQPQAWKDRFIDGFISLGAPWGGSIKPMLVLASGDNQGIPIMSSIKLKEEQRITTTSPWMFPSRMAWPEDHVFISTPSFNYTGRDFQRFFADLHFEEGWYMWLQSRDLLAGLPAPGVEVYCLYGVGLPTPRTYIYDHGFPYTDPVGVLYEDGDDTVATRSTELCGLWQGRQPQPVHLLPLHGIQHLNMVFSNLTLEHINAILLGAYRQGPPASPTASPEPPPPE

The experiment addresses T1, lecithin:cholesterol acyltransferase …. The experiment is described as follows: cell-based or functional assay.
As for PVLDLFRWLLNE[Aib]LEALKQKLK [peptide 108], the “ACTIVITY (%) LCAT” value was 0%.

In the case of PVLELFENLLERLLEALQKKLK [peptide 161], the “ACTIVITY (%) LCAT” value came out at 27%.

As for PELDEFREKLNE[Aib]LEALKQKLK [peptide 117], the “ACTIVITY (%) LCAT” value worked out at 0%.

For the molecule PVLDLFRELLNELLEA[Nal″]KQKLK [peptide 10], the “ACTIVITY (%) LCAT” value turned out to be 79%.

Take PLLELFENLLERLLDALQKKLK [peptide 150]: the “ACTIVITY (%) LCAT” value was 57%.

Consider PVLDEFREKLNE[Aib][Aib]EALKQKLK [peptide 110], for which the “ACTIVITY (%) LCAT” value was determined as 0%.

With PVLELFENLLERLLDAWQKKLK [peptide 164], the “ACTIVITY (%) LCAT” value was 24%.

As for PVLELFLNLLERLLDALQKKLK [peptide 156], the “ACTIVITY (%) LCAT” value came to 35%.

As to PVLDEFREKLNEELEA[Aib]KQKLK [peptide 119], the “ACTIVITY (%) LCAT” value worked out at 0%.

In the case of PVLDLFKELLQELLEALKQKLK [peptide 11], the “ACTIVITY (%) LCAT” value worked out at 72%.

Consider PVLELFLNLLERLLDWLQKKLK [peptide 158], for which the “ACTIVITY (%) LCAT” value is 30%.

With PVLDLFRELWNELLEALKQKLK [peptide 15], the “ACTIVITY (%) LCAT” value was 60%.

As for GVLELFENLLERLLDALQKKLK [peptide 145], the “ACTIVITY (%) LCAT” value turned out to be 100%.

In the case of AVLELFENLLERLLDALQKKLK [peptide 153], the “ACTIVITY (%) LCAT” value worked out at 49%.

Turning to PVLELFENLLE[Orn]LLDALQ[Orn][Orn]L[Orn] [peptide 170], the “ACTIVITY (%) LCAT” value worked out at 17%.

For the molecule PVLDEFREKLNEELEWLKQKLK [peptide 122], the “ACTIVITY (%) LCAT” value was 0%.

For PVLDLFREKLNEELEALKQKLK [peptide 106], the “ACTIVITY (%) LCAT” value was 0%.

In the case of PVLEFFENLLERLLDALQKKLK [peptide 157], the “ACTIVITY (%) LCAT” value is 30%.

For the molecule PVLELFENLLERLWDALQKKLK [peptide 163], the “ACTIVITY (%) LCAT” value is 26%.

For the molecule PVLELFEQLLEKLLDALQKKLK [peptide 168], the “ACTIVITY (%) LCAT” value was found to be 17%.

As to PVLELFENLLERLGDALQKKLK [peptide 148], the “ACTIVITY (%) LCAT” value amounted to 75%.

On to PVLELFENLLERLFDALQKKLK [peptide 147], for which the “ACTIVITY (%) LCAT” value was found to be 76%.

Turning to PVLELFENLLERLLDALQKKLK [peptide 146], the “ACTIVITY (%) LCAT” value came out at 86%.

PVLELFENLLEKLLDALQKKLK [peptide 169]: the “ACTIVITY (%) LCAT” value turned out to be 17%.

Turning to PVLELFENLLERLLDLLQKKLK [peptide 165], the “ACTIVITY (%) LCAT” value was 23%.

With PVLDEFREKLNEPLEALKQKLK [peptide 113], the “ACTIVITY (%) LCAT” value is 0%.

PVLDLFRELLNELLE[Nal″]LKQKLK [peptide 1]: the “ACTIVITY (%) LCAT” value was found to be 120%.

As for PVLDEFREKLNEELEALWQKLK [peptide 121], the “ACTIVITY (%) LCAT” value was 0%.

PVLDEFREKLNEELE[Aib]LKQKLK [peptide 120]: the “ACTIVITY (%) LCAT” value was found to be 0%.

With PVLDEFREKLNERLEALKQKLK [peptide 109], the “ACTIVITY (%) LCAT” value was found to be 0%.

PVLDEFREKLNE[Aib]SEALKQKLK [peptide 112]: the “ACTIVITY (%) LCAT” value worked out at 0%.

For GVLDLFRELLNEGLEALKQKLK [peptide 13], the “ACTIVITY (%) LCAT” value came to 67%.

Consider KLKQKLAELLENLLERFLDLVP (all D-amino acids (lower case)) [peptide 107], for which the “ACTIVITY (%) LCAT” value worked out at 0%.

In the case of PVLELFENLGERLLDALQKKLK [peptide 151], the “ACTIVITY (%) LCAT” value was 55%.

Turning to PVLELFLNLLEKLLDALQKKLK [peptide 166], the “ACTIVITY (%) LCAT” value stood at 22%.

Regarding PVLELFENLLEKLLDLLQKKLK [peptide 171], the “ACTIVITY (%) LCAT” value turned out to be 16%.

With [dP]VLELFENLLERLLDALQKKLK [peptide 144], the “ACTIVITY (%) LCAT” value amounted to 111%.

Take PVLDEFREKLNE[Aib]MEALKQKLK [peptide 114]: the “ACTIVITY (%) LCAT” value was found to be 0%.

For PVLELFENGLERLLDALQKKLK [peptide 167], the “ACTIVITY (%) LCAT” value came to 18%.

On to PVLELFENWLERLLDALQKKLK [peptide 162], for which the “ACTIVITY (%) LCAT” value was 27%.

On to PAADAFREAANEAAEAAKQKAK [peptide 105], for which the “ACTIVITY (%) LCAT” value was 1%.

PVLDLFRELLNELLEALXQXLX (Orn (O) at 18, 20, 22) [peptide 14]: the “ACTIVITY (%) LCAT” value is 61%.

For PVLDEFREKLNE[Aib]LEALEQKLK [peptide 118], the “ACTIVITY (%) LCAT” value is 0%.

For PHLDEFREKLNE[Aib]LEALKQKLK [peptide 116], the “ACTIVITY (%) LCAT” value is 0%.

As for PVFELFENLLERLLDALQKKLK [peptide 152], the “ACTIVITY (%) LCAT” value worked out at 50%.

In the case of PVLELFLNLLERLGDALQKKLK [peptide 172], the “ACTIVITY (%) LCAT” value turned out to be 16%.

Consider PVLELFENLWERLLDALQKKLK [peptide 149], for which the “ACTIVITY (%) LCAT” value worked out at 63%.

For PVLDEFREKLWE[Aib]WEALKQKLK [peptide 111], the “ACTIVITY (%) LCAT” value was determined as 0%.

With PVLDLFRELLNELLELLKQKLK [peptide 127], the “ACTIVITY (%) LCAT” value came to 47%.

For the molecule PVLDLFRELLNELLEAGKQKLK [peptide 12], the “ACTIVITY (%) LCAT” value was 70%.

With PVLDEFRELLNEELEALKQKLK [peptide 103], the “ACTIVITY (%) LCAT” value worked out at 1%.

Turning to PVLELFLNLWERLLDALQKKLK [peptide 155], the “ACTIVITY (%) LCAT” value came to 38%.

Take PKLDEFREKLNE[Aib]LEALKQKLK [peptide 115]: the “ACTIVITY (%) LCAT” value came to 0%.

As to PVLDLFENLLERLLDALQKKLK [peptide 159], the “ACTIVITY (%) LCAT” value was determined as 28%.

On to PVLELFENLLERLLDWLQKKLK [peptide 160], for which the “ACTIVITY (%) LCAT” value is 28%.

For the molecule PVLELFENLLERGLDALQKKLK [peptide 154], the “ACTIVITY (%) LCAT” value was 39%.

Turning to PLLNELLEALKQKLK [peptide 104], the “ACTIVITY (%) LCAT” value is 1%.
